This assay deals with Lamb brain tubulin (lamb).

B1: HIV-1 Tat protein, Oyi strain (natural protein)
chain: MEPVDPRLEPWKHPGSQPKTASNNCYCKRCCLHCQVCFTKKGLGISYGRKKRRQRRRAPQDSKTHQVSLSKQPASQPRGDPTGPKESKKKVERETETDPED
For B1, the ΔOD 350 nm plateau of 15 μM tubulin at 37°C with 8 μM compound is 0.8 ΔOD 350 nm and the ΔOD ratio (plateau with 8 μM compound divided by plateau of tubulin alone) is 2.63.
